Results as given in patent publication US6946265 (Xencor, dated 2005).
Positions count from the first letter of the chain named. Names may count otherwise.

B1: GHA protein mutant b (A13V, T27V, S79A, V90I, G161M, S184A) (ligand)
chain: FPTIPLSRLFDNVMLRAHRLHQLAFDVYQEFEEAYIPKEQKYSFLQNPQTSLCFSESIPTPSNREETQQKSNLELLRIALLLIQSWLEPIQFLRSVFANSLVYGASDSNVYDLLKDLEEGIQTLMGRLEDGSPRTGQIFKQTYSKFDTNSHNDDALLKNYMLLYCFRKDMDKVETFLRIVQCRAVEGSCGF
B2: GHA protein mutant d (A13V, T27V, S55A, S79A, S85A, V90I, G161M, S184A) (ligand)
chain: B1 chain with S55A, S85A
B3: GHA protein mutant f (A13V, T27V, Y28F, F54Y, S55A, S79A, S85A, V90I, G161M, S184A) (ligand)
chain: B1 chain with Y28F, F54Y, S55A, S85A

What follows are binders tested against T1, full-length human growth hormone receptor (hGHR) (human, UniProt P10912 19-638) (assay: cell-based or functional assay).
T1 sequence (looked up): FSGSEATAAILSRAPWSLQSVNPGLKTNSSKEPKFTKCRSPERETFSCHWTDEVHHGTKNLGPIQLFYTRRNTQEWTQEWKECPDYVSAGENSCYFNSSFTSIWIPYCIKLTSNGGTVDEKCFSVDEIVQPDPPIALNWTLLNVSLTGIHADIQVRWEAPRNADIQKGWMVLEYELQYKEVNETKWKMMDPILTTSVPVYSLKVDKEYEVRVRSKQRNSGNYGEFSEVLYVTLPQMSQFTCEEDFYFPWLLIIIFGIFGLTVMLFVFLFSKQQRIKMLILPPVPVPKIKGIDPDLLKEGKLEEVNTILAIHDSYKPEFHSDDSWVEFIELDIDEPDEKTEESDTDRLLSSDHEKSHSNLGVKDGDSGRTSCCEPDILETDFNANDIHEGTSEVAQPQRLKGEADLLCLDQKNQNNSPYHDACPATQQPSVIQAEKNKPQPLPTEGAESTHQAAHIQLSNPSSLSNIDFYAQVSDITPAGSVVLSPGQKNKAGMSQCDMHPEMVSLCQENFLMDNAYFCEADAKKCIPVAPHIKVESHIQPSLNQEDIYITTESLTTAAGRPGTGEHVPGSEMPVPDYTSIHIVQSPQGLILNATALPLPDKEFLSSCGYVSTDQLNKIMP
For B1, the “ED50, cell proliferation (MTT assay) of FDC-P1 cells transfected with hGHR” value (from here on “ED50, cell proliferation (MTT assay)”) was 320.
With B2 the “ED50, cell proliferation (MTT assay)” value was 260.
With B3 the “ED50, cell proliferation (MTT assay)” value was 230.
